T1: ST2 on the effector cells (KU812, KU812/NF-κB-1#, HUVEC, HMC-1) (human, UniProt Q01638 19-556)
T1 sequence (looked up): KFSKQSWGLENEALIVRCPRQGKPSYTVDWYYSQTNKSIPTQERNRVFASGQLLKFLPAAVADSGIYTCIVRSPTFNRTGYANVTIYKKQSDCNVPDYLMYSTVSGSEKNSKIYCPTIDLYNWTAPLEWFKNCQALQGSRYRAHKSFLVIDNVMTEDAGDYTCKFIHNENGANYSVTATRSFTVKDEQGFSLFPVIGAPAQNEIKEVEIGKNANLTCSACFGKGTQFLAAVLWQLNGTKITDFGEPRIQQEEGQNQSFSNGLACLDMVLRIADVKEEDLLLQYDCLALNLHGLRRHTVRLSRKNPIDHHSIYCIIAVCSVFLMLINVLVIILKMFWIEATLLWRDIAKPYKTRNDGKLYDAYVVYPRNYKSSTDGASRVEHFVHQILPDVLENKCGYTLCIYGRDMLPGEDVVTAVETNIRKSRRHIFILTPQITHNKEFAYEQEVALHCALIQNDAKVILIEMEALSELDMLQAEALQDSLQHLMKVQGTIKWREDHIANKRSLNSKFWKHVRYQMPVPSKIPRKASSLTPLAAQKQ

T2: Human ST2-his (human, UniProt Q01638-2 19-328, limits assumed)
T2 construct: Expressed in CHO-K1; The printed range starts at Met1; also called human ST2 fused with a 6-histidine tag at the C-terminus
T2 sequence: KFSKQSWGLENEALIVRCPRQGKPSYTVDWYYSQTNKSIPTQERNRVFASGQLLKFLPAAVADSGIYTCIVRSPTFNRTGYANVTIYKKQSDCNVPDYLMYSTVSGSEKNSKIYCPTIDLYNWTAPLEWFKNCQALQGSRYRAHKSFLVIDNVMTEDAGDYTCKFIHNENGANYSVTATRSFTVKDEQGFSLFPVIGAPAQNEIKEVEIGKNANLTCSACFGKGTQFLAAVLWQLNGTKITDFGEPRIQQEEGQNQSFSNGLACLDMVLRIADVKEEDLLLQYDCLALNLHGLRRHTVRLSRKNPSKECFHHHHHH


Assays:
[1] = target: T1, ST2 on the effector cells (KU812, …); assay: cell-based or functional assay
Human ST2-fc (human) = Human ST2-fc (human) (UniProt Q01638); assay: competition ELISA, coated ST2-fc, competitor IL33-his
[2] = target: T1, ST2 on the effector cells (KU812, …); assay: cell-based or functional assay; remark: listed apart in the source
Human ST2-his [3] = target: T2, Human ST2-his; assay: SPR Biacore X100, antibody captured on protein A chip, human ST2-his injected, dissociation at pH 5.5
Protocol: (§1) The experiment on the interaction between the anti-human ST2 antibodies and human ST2-his was performed using Biacore X100.
(§2) Each anti-human ST2 antibody was diluted to 2 µg/mL and captured on the surface of a protein A chip for a capture time of 60 s. Following the antibody capture, a solution of human ST2-his (2-fold gradient dilution from a starting concentration of 20 nM, to obtain 6 concentrations in total) was injected. Association was monitored for 180 s and dissociation was monitored for 700 s, and the sensor surface was regenerated by injecting a solution of glycine at pH 2.0. Kinetic data were analyzed using a simple 1:1 binding model.

Human ST2-his [4] = target: T2, Human ST2-his; assay: SPR Biacore X100, antibody captured on protein A chip, human ST2-his injected, pH 7.4
Protocol: as §1, §2

[5] = target: T1, ST2 on the effector cells (KU812, …); assay: cell-based or functional assay; remark: listed apart in the source
[6] = target: T1, ST2 on the effector cells (KU812, …); assay: cell-based or functional assay; remark: listed apart in the source
Human ST2-his [7] = target: T2, Human ST2-his; assay: SPR Biacore X100, ratio of kd at pH 5.5 to kd at pH 7.4
Protocol: as §1, §2

[8] = target: T1, ST2 on the effector cells (KU812, …); assay: cell-based or functional assay; remark: listed apart in the source
[9] = target: T1, ST2 on the effector cells (KU812, …); assay: cell-based or functional assay; remark: listed apart in the source

Binder | IC50, inhibition of KU812-IL5 production promoted by reduced IL33 [1] [µg/mL] | Maximum inhibition rate, KU812-IL5 production by reduced IL33 [1] [%] | Relative activity, KU812-IL5 production by reduced IL33 [1] [%] | IC50 (Human ST2-fc (human)) [µg/mL] | Maximum inhibition rate (Human ST2-fc (human)) [%] | Relative activity compared with CNTO7160 (Human ST2-fc (human)) [%] | IC50, inhibition of HUVEC-IL6 production promoted by IL33 [2] [µg/mL] | Maximum inhibition rate, HUVEC-IL6 production by IL33 [2] [%] | Relative activity, HUVEC-IL6 production by IL33 [2] [%] | Kd (Human ST2-his [3]) [nM] | koff (Human ST2-his [3]) [s⁻¹] | kon (Human ST2-his [3]) [M⁻¹ s⁻¹] | Kd (Human ST2-his [4]) [nM] | koff (Human ST2-his [4]) [s⁻¹] | kon (Human ST2-his [4]) [M⁻¹ s⁻¹] | IC50, inhibition of activation of KU812-NF-κB reporter gene by IL33 [5] [µg/mL] | Maximum inhibition rate, KU812-NF-κB reporter gene [5] [%] | Relative activity compared with CNTO7160, KU812-NF-κB reporter gene [5] [%] | IC50, inhibition of KU812-IL5 production promoted by IL-33 (human IL33-his) [6] [µg/mL] | Maximum inhibition rate, KU812-IL5 production by IL-33 [6] [%] | further results
5888-116-H0L1 (antibody, human IgG4 S228P, kappa, V domains shown, Humanized antibody) VH: QVQLVQSGAEVKKPGASVKVSCKASGYTFTDSEMYWVRQAPGQGLEWMGAIDPETGDTAFNQKFKGRVTMTRDTSTSTVYMELSSLRSEDTAVYYCARAFDNDNDDGFAYWGQGTMVTVSS VL: DIQMTQSPSSLSASVGDRVTITCSASSSVNYMHWYQQKPGKAPKRLIYDTSKLASGVPSRFSGSGSGTDYTFTISSLQPEDAATYYCQQWSSNPLTFGQGTKLEIKR | 0.124 | 75.1 | 1180 | 0.0204 | 94.1 | 5200 | 0.832 | 92.6 | 328 | 0.474 | 0.0014 | 2.95e+06 | 0.259 | 0.000464 | 1.79e+06 | 0.013 | 95.7 | 1540 | 0.00929 | 98.3 | Relative activity compared with CNTO7160, KU812-IL5 production by IL-33 [6]: 656%; kd ratio of pH 5.5/pH 7.4 (Human ST2-his [7]): 3.02; IC50, inhibition of KU812-IL5 production promoted by oxidized IL33 [8]: 0.0036 µg/mL; Maximum inhibition rate, KU812-IL5 production by oxidized IL33 [8]: 102%; Relative activity, KU812-IL5 production by oxidized IL33 [8]: 614%; IC50, inhibition of HMC-1 IL8 production promoted by IL33 [9]: 0.00551 µg/mL; Maximum inhibition rate, HMC-1 IL8 production by IL33 [9]: 90.6%; Relative activity, HMC-1 IL8 production by IL33 [9]: 1830%
5888-153-H3L1 (antibody, human IgG4 S228P, kappa, V domains shown, Humanized antibody) VH: QVQLVQSGAEVKKPGASVKVSCKASGYTFTDYELHWVRQAPGQGLEWMGTIDPETGDTVYNQKFKARVTMTADKSTSTAYMELSSLRSEDTAVYYCTRAFYNDYDDAFAYWGQGTLVTVSS VL: EIVMTQSPATLSLSPGERATLSCSVSSSVSYMHWYQQKPGQAPRRLIYDTSKLASGIPARFSGSGSGTDYTLTISSLEPEDAAVYYCQQWNSSPLTFGGGTKVEIKR | 0.265 | 86.9 | 554 | 0.553 | 93.7 | 228 | 1.64 | 93 | 167 | 0.122 | 0.000232 | 1.9e+06 | 0.097 | 0.000148 | 1.53e+06 | 0.0394 | 86.1 | 508 | 0.00815 | 97 | Relative activity compared with CNTO7160, KU812-IL5 production by IL-33 [6]: 742%; kd ratio of pH 5.5/pH 7.4 (Human ST2-his [7]): 1.57; IC50, inhibition of KU812-IL5 production promoted by oxidized IL33 [8]: 0.0136 µg/mL; Maximum inhibition rate, KU812-IL5 production by oxidized IL33 [8]: 101%; Relative activity, KU812-IL5 production by oxidized IL33 [8]: 162%; IC50, inhibition of HMC-1 IL8 production promoted by IL33 [9]: 0.0472 µg/mL; Maximum inhibition rate, HMC-1 IL8 production by IL33 [9]: 86.8%; Relative activity, HMC-1 IL8 production by IL33 [9]: 213%
5888-153-H0L1 (antibody, human IgG4 S228P, kappa, V domains shown, Humanized antibody) VH: QVQLVQSGAEVKKPGASVKVSCKASGYTFTDYELHWVRQAPGQGLEWMGTIDPETGDTVYNQKFKARVTMTRDTSTSTVYMELSSLRSEDTAVYYCARAFYNDYDDGFAYWGQGTLVTVSS VL: EIVMTQSPATLSLSPGERATLSCSVSSSVSYMHWYQQKPGQAPRRLIYDTSKLASGIPARFSGSGSGTDYTLTISSLEPEDAAVYYCQQWNSSPLTFGGGTKVEIKR | 0.389 | 83.6 | 377 | 0.3 | 94.3 | 380 | 0.844 | 93 | 323 | 0.0706 | 0.000152 | 2.15e+06 | 0.0997 | 0.000176 | 1.76e+06 | 0.0438 | 88.2 | 458 | 0.0303 | 99.1 | Relative activity compared with CNTO7160, KU812-IL5 production by IL-33 [6]: 201%; kd ratio of pH 5.5/pH 7.4 (Human ST2-his [7]): 0.86; IC50, inhibition of KU812-IL5 production promoted by oxidized IL33 [8]: 0.0147 µg/mL; Maximum inhibition rate, KU812-IL5 production by oxidized IL33 [8]: 101%; Relative activity, KU812-IL5 production by oxidized IL33 [8]: 150%; IC50, inhibition of HMC-1 IL8 production promoted by IL33 [9]: 0.0359 µg/mL; Maximum inhibition rate, HMC-1 IL8 production by IL33 [9]: 87.2%; Relative activity, HMC-1 IL8 production by IL33 [9]: 280%
5888-153-H3L2 (antibody, human IgG4 S228P, kappa, V domains shown, Humanized antibody) VH: QVQLVQSGAEVKKPGASVKVSCKASGYTFTDYELHWVRQAPGQGLEWMGTIDPETGDTVYNQKFKARVTMTADKSTSTAYMELSSLRSEDTAVYYCTRAFYNDYDDAFAYWGQGTLVTVSS VL: EIVMTQSPATLSLSPGERATLSCSVSSSVSYMHWYQQKPGQAPRRLIYDTSKLASGIPARFSGSGSGTDYTLTISSLEPEDAAVYYCQQWNTSPLTFGGGTKVEIKR | 0.522 | 87.2 | 281 | 0.828 | 93.7 | 152 | 3.69 | 91.8 | 73.9 | 0.131 | 0.000245 | 1.87e+06 | 0.104 | 0.000171 | 1.65e+06 | 0.0553 | 88.1 | 362 | 0.0755 | 94.2 | Relative activity compared with CNTO7160, KU812-IL5 production by IL-33 [6]: 142%; kd ratio of pH 5.5/pH 7.4 (Human ST2-his [7]): 1.43; IC50, inhibition of KU812-IL5 production promoted by oxidized IL33 [8]: 0.0173 µg/mL; Maximum inhibition rate, KU812-IL5 production by oxidized IL33 [8]: 101%; Relative activity, KU812-IL5 production by oxidized IL33 [8]: 127%; IC50, inhibition of HMC-1 IL8 production promoted by IL33 [9]: 0.0944 µg/mL; Maximum inhibition rate, HMC-1 IL8 production by IL33 [9]: 83.3%; Relative activity, HMC-1 IL8 production by IL33 [9]: 107%
